Test results published in patent US8470574B2, “L-succinylaminoacylase and process for producing L-amino acid using it” (Toyo Boseki Kabushiki Kaisha, priority 2008, dated 2013).
“Also recorded” adds a separate entry of the source.

How the values were obtained:
[1] = Ability of commercially available L-aminoacylase to synthesize L-tert-leucine, TLC (Comparative Example); format: biochemical; details: 2,600 U/mL enzyme solution, 25° C., 12 hours; TLC ninhydrin
Description: Acylase AMANO (Sigma, code No. 01818-5G) and porcine kidney Acylase I (Sigma, code No. A3010-100MG) were dissolved in 50 mM K-phosphate buffer (pH 7.5) so as to make each of them 2,600 U/mL to give an L-aminoacylase solution.
The above-mentioned 1 M HEPES (2.0 mL), 10 mM CoCl2 solution (0.1 mL) and 150 mM N-acetyl-L-tert-leucine (1.0 mL) were mixed with water (6.4 mL) to give a reaction reagent.
The above commercially available L-aminoacylase (Comparative Example 2) (0.5 mL) was added to the reaction reagent (9.5 mL) containing the above N-acetyl-L-tert-leucine and, after the above was gently stirred, the reaction was conducted at 25° C. for 12 hours. As a control test, the same reaction was conducted by adding 50 mM K-phosphate buffer (pH 7.5) to the reagent mixture in place of the L-aminoacylase solution. After the enzymatic reaction, the L-amino acid was directly detected by TLC and ninhydrin reaction by the same manner as in Example 2.

[2] = Synthesis of L-tert-leucine from N-succinyl-L-tert-leucine, TLC with ninhydrin detection (Examples 2, 3); format: biochemical; details: 57° C., 6 hours, CoCl2, HEPES pH 7.9
Description: The above-mentioned 1 M HEPES (2.0 mL), 10 mM CoCl2 solution (0.1 mL) and 150 mM N-succinyl-L-tert-leucine (1.0 mL) were mixed with water (6.4 mL) to give a reaction reagent.
(§1) The L-succinylaminoacylase (2.3 mg/mL, 0.5 mL) prepared in Example 1 was added to the reaction reagent (9.5 mL) containing the above N-succinyl-L-tert-leucine and, after the above was gently stirred, the reaction was conducted at 57° C. for 6 hours. As a control test, the same reaction was conducted by adding 50 mM K-phosphate buffer (pH 7.5) to the reagent mixture in place of the L-succinylaminoacylase solution. […]
(§2) N-Succinyl-L-valine, N-succinyl-L-phenylalanine, N-succinyl-L-tryptophan, N-succinyl-L-asparagine, N-succinyl-L-aspartic acid, N-succinyl-L-serine, N-succinyl-L-glutamic acid, N-succinyl-L-tert-leucine, N-succinyl-L-cyclohexylglycine or N-succinyl-L-4-bromophenylalanine is used as an N-succinyl-L-amino acid and a reaction reagent was prepared according to the method for the case of N-succinyl-L-tert-leucine. L-succinylaminoacylase of Example 1 was made to react using the resulting reaction reagent to synthesize an L-amino acid and the L-amino acid was directly detected by the same manner as in Example 2.

[3] = Synthesis of L-valine from N-succinyl-L-valine, TLC detection (Example 3); format: biochemical; details: TLC ninhydrin, as Example 2
Description: (§3) The reaction reagent containing the N-succinyl-L-amino acid as such was prepared by the same method as in the preparation of a reaction reagent containing N-succinyl-L-tert-leucine mentioned in (1).
as §1, §2

[4] = Synthesis of L-phenylalanine from N-succinyl-L-phenylalanine, TLC detection (Example 3); format: biochemical; details: TLC ninhydrin, as Example 2
Description: as §3, §1, §2

[5] = Synthesis of L-tryptophan from N-succinyl-L-tryptophan, TLC detection (Example 3); format: biochemical; details: TLC ninhydrin, as Example 2
Description: as §3, §1, §2

[6] = Synthesis of L-asparagine from N-succinyl-L-asparagine, TLC detection (Example 3); format: biochemical; details: TLC ninhydrin, as Example 2
Description: as §3, §1, §2

[7] = Synthesis of L-aspartic acid from N-succinyl-L-aspartic acid, TLC detection (Example 3); format: biochemical; details: TLC ninhydrin, as Example 2
Description: as §3, §1, §2

[8] = Synthesis of L-serine from N-succinyl-L-serine, TLC detection (Example 3); format: biochemical; details: TLC ninhydrin, as Example 2
Description: as §3, §1, §2

[9] = Synthesis of L-glutamic acid from N-succinyl-L-glutamic acid, TLC detection (Example 3); format: biochemical; details: TLC ninhydrin, as Example 2
Description: as §3, §1, §2

[10] = Synthesis of L-cyclohexylglycine from N-succinyl-L-cyclohexylglycine, TLC detection (Example 3); format: biochemical; details: TLC ninhydrin, as Example 2
Description: as §3, §1, §2

[11] = Synthesis of L-4-bromophenylalanine from N-succinyl-L-4-bromophenylalanine, TLC detection (Example 3); format: biochemical; details: TLC ninhydrin, as Example 2
Description: as §3, §1, §2

[12] = Conversion of N-succinyl-L-tert-leucine to L-tert-leucine, HPLC (Example 4); format: biochemical; details: 1 wt % N-succinyl-L-tert-leucine, pH 7 to 8, 1 mM CoCl2, 57° C., up to 90 hours
Description: (§4) An L-succinylaminoacylase solution (1 mL; 2.3 mg/mL) was added to a 1 wt % solution of N-succinyl-L-tert-leucine (pH 7 to 8; 10 mL; containing 1 mM of CoCl2) and made to react at 57° C. for 90 hours with stirring to give L-tert-leucine. The sample was collected after 16 hours, 42 hours, 65 hours and 90 hours from the start of the reaction and subjected to an HPLC measurement under the following condition to confirm the peaks of succinyl-form compound and free-form compound whereby the synthesis of L-tert-leucine from N-succinyl-L-tert-leucine was confirmed.
Column: Inertsil ODS-2 (particle size: 5 μm; 4.6 mm inner diameter×250 mm length) manufactured by GL Science
Eluant: aqueous solution of phosphate (pH 2.3)/acetonitrile for HPLC=80:20
Column temperature: 40° C.

[13] = Conversion of N-succinyl-DL-tert-leucine to L-tert-leucine, HPLC (Example 5); format: biochemical; details: 1 wt % N-succinyl-DL-tert-leucine, pH 7 to 8, 1 mM CoCl2, 57° C., 90 hours, theoretically highest yield 50%
Description: as §4, with “N-succinyl-DL-tert-leucine” for “N-succinyl-L-tert-leucine”, “finishing” for “16 hours, 42 hours, 65 hours and 90 hours from the start of”, “the” for “the following”, “condition same as the Example 4” for “condition”, “confirmed. As a result, the yield was 45% or more and the value near 50% which is the theoretically highest yield was achieved.” for “confirmed.”

[14] = Conversion of N-succinyl-DL-tert-leucine to L-tert-leucine with N-succinylamino acid racemase, HPLC (Example 6); format: biochemical; details: used together with N-succinylamino acid racemase, 1 wt % N-succinyl-DL-tert-leucine, 1 mM CoCl2, 57° C., up to 90 hours
Description: An L-succinylaminoacylase solution (1 mL; 2.3 mg/mL) prepared in Example 1 and the above N-succinylamino acid racemase (0.1 mL; 10.5 mg/mL) were added to a 1 wt % solution of N-succinyl-DL-tert-leucine (pH 7 to 8; 10 mL; containing 1 mM of CoCl2) and made to react at 57° C. for 90 hours with stirring to synthesize L-tert-leucine. The sample was collected after 24 hours and 90 hours from the start of the reaction and subjected to an HPLC measurement under the condition same as Example 4 to confirm the peaks of succinyl-form compound and free-form compound whereby the synthesis of L-tert-leucine from N-succinyl-DL-tert-leucine was confirmed.

[15] = Activity to N-succinylamino acid compared with N-acetylamino acid; format: biochemical
[16] = Temperature stability of the enzyme; format: physicochemical; details: heating treatment for 30 minutes
Optimum pH of the enzyme = format: biochemical; details: reaction at 60° C. for 30 minutes
[17] = Effect of metal ion on L-succinylaminoacylase activity; format: biochemical; details: metal ion Co2+ versus Zn2+
[18] = Effect of metal ion on N-succinylamino acid racemase activity; format: biochemical; details: final concentration of 0.1 mM to 1 M

B1: porcine kidney Acylase I: commercially available L-aminoacylase (Sigma, code No. A3010-100MG) (protein, UniProt P37111 2-407, looked up)
Aminoacylase-1: ASKGREGEHPSVTLFRQYLRIRTVQPEPDYGAAVAFLEERARQLGLGCQKVEVVPGHVVTVLTWPGTNPTLSSILLNSHTDVVPVFKEHWSHDPFEGFKDADGYIYGRGAQDMKCVSIQYLEAVRRLKVEGHHFPRTIHMTFVPDEEVGGHQGMELFVKRPEFQALRAGFALDEGLASPTDAFTVFYSERSPWWLRVTSTGKPGHGSRFIEDTAAEKLHKVINSILAFREKEKQRLQSNQLKPGAVTSVNLTMLEGGVAYNVVPATMSACFDFRVAPDVDLKAFEEQLQSWCQAAGEGVTFEFVQKWMETQVTSTDDSDPWWAAFSGVFKDMKLALELEICPASTDARYIRAAGVPALGFSPMNHTPVLLHDHDERLHEAVFLRGVDIYTQLLSALASVPALPSES
ability to synthesize L-tert-leucine from N-acetyl-L-tert-leucine [1]: unable to synthesize L-tert-leucine

B2: L-succinylaminoacylase: L-succinylaminoacylase of NCA 1503 strain of Geobacillus stearothermophilus; amino acid sequence SEQ ID No: 2, expressed in Escherichia coli JM 109 (pLSA1) (protein, listed as Geobacillus stearothermophilus)
chain: MKEIVEQMKAELWEVFDHLHRHPEISWEEWQTTEFLRRELEREGYRVRTFADCPGVVAEIGAGPFTVGVRSDMDALWQEVNGVWQPNHACGHDAHMTIVLGVAKLLRRIGYEPPGTLRFLFQPAEEKGTGALKLIEKGAVDGVSFLYGVHLRPIQEVKGGYAAPAIIHGAAQCIEGRIRGVAAHAARPHLGVNVIEVGSAIVQELGKIHIDPQVPASIKMTKFHAGEKDANTIPGYAEFALDLRAQTNEAMERLVEGLRHVINGVAAIYGAEIELVERTRIVAAHPDPDAVRLMEEAIIAALGTEKCVPPVVTSGGEDFHFYSFQKPELKTTMLGLGCDLRPGLHHPNMTFRRDDLLSGVEILARTVINTFALQGENERVSVAANH
ability to produce L-tert-leucine from N-succinyl-L-tert-leucine [2]: able to produce the L-tert-leucine; also recorded: able to synthesize the corresponding L-amino acid; also recorded: reacts | ability to synthesize L-valine from N-succinyl-L-valine [3]: able to synthesize the corresponding L-amino acid | ability to synthesize L-phenylalanine from N-succinyl-L-phenylalanine [4]: able to synthesize the corresponding L-amino acid | ability to synthesize L-tryptophan from N-succinyl-L-tryptophan [5]: able to synthesize the corresponding L-amino acid | ability to synthesize L-asparagine from N-succinyl-L-asparagine [6]: able to synthesize the corresponding L-amino acid | ability to synthesize L-aspartic acid from N-succinyl-L-aspartic acid [7]: able to synthesize the corresponding L-amino acid | ability to synthesize L-serine from N-succinyl-L-serine [8]: able to synthesize the corresponding L-amino acid | ability to synthesize L-glutamic acid from N-succinyl-L-glutamic acid [9]: able to synthesize the corresponding L-amino acid | ability to synthesize L-cyclohexylglycine from N-succinyl-L-cyclohexylglycine [10]: able to synthesize the corresponding L-amino acid; also recorded: reacts | ability to synthesize L-4-bromophenylalanine from N-succinyl-L-4-bromophenylalanine [11]: able to synthesize the corresponding L-amino acid; also recorded: reacts | yield (conversion rate into L-tert-leucine) [12]: ≥ 90% | yield of L-tert-leucine [13]: ≥ 45% | yield (conversion rate into L-tert-leucine) [14]: about 85% | activity to N-succinylamino acid relative to N-acetylamino acid [15]: at least 100 fold | Temperature stability: temperature at which inactivated [16]: ≥ 75 °C | Temperature stability: temperature at which stable [16]: 70 °C | Optimum pH (Optimum pH of the enzyme): 7 | activity increase with Co2+ as compared with Zn2+ [17]: twice or more

B3: N-succinylamino acid racemase: N-succinylamino acid racemase (gene SEQ ID No: 3) derived from Geobacillus stearothermophilus NCA 1503 strain, per JP-A No. 2008-61642 (protein, listed as Geobacillus stearothermophilus)
chain: MAINIEYVILRHLQMELKAPFTTSFGTFQRKELILVEVVDRDGVSGWGESVAFSAPWYSEETVKTNWHMLEDFLVPLALAEPIHHPEELSKRFSAIRQNNMAKAALEGAVWDLYAKRLGVPLSQALGGAKKDIEVGVSIGIQPTVADLLQVIERYVAQGYRRIKVKIKPSWDVDVIREVRRVFPDVPLMADANSAYTLVDADRLKALDEFGLLMIEQPLAADDLVDHARLQPLLQTPICLDESIRSYDDARKALDLGSCRIINIKIGRVGGLGEAKRIHDLCAERGAPVWCGGMLEAGVGRAHNIAITTLENFTLPGDTAASSHYWERDIITPEVEVHGGLIRVPDAPGIGYDVDRRQVERYTQFAKVFHRTATA
modifications: CDS (1)..(1128)
relative activity with Co2+ as compared with Mn2+ [18]: twice or more higher
